The values that follow come from patent publication US20200317768A1 (published 2020).

Common to all, as to assay: SPR, antibody captured, FcgR analyte
On the technique in general: Surface plasmon resonance follows binding to a sensor surface in real time, without labels.

Assay [1] concerns the target T1, human FcγRIIaR extracellular domain, His-tagged (human, UniProt P12318 34-217).
T1 construct: also called human FcγRIIa (type R); FcgRIIaR
T1 chain: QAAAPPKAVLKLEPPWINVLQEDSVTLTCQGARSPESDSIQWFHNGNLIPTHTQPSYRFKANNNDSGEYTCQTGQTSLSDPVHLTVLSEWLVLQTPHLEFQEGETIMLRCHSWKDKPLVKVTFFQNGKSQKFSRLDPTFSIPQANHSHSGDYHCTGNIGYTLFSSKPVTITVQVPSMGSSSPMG

The target of assay [2] is T2, cynomolgus monkey FcγRIIa2 extracellular domain, His-tagged (cynomolgus monkey).
T2 construct: also called cyno FcγRIIa2; cynoFcgRIIa2
T2 chain: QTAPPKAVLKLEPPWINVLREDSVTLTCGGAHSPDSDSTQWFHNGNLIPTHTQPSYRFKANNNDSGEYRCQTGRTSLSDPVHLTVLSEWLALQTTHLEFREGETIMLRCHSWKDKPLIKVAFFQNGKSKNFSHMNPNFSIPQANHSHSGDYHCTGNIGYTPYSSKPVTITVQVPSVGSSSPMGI

The target of assay [3] is T3, cynomolgus monkey FcγRIIa3 extracellular domain, His-tagged (cynomolgus monkey).
T3 construct: also called cyno FcγRIIa3; cynoFcgRIIa3
T3 chain: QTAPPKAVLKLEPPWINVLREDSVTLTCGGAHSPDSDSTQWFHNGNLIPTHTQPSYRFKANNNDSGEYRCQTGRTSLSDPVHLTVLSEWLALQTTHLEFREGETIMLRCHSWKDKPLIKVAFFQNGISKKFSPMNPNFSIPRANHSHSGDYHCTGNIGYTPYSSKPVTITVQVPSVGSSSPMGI

Assay [4] has as its target T4, cynomolgus monkey FcγRIIb extracellular domain, His-tagged (cynomolgus monkey).
T4 construct: also called cyno FcγRIIb; cynoFcγRIIb
T4 chain: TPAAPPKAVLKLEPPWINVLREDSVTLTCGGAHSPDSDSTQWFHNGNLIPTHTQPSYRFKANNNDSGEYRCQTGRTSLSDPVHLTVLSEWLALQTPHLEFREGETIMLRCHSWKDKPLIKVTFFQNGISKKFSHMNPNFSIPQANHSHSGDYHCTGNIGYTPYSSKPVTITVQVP

Assay [5] addresses T5, human FcγRIIaH extracellular domain, His-tagged (human, UniProt P12318 34-217).
T5 construct: also called human FcγRIIa (type H); FcgRIIaH
T5 sequence: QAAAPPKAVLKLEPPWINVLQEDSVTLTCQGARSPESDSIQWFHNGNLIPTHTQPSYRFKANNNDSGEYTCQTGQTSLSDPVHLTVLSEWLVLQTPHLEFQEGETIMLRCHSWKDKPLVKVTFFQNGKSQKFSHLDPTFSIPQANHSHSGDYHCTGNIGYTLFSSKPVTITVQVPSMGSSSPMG

The target in assay [6] is T6, human FcγRIIIaV extracellular domain, His-tagged (human, UniProt P08637 17-208).
T6 construct: also called FcgRIIIaV

In assay [7] the target is T7, cynomolgus monkey FcγRIIIaS extracellular domain, His-tagged (cynomolgus monkey, UniProt Q8SPW2 21-206 at identity 1.00)).
T7 construct: also called cyno FcγRIIIaS; cynoFcγRIIIaS
T7 chain: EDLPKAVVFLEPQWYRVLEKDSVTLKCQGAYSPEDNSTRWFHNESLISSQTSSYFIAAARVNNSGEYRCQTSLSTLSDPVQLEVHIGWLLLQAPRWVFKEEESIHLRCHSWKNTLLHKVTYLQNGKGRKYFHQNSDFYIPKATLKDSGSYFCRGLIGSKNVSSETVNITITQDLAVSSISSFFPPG

For assay [8], the target named is T8, cynomolgus monkey FcγRIIa1 extracellular domain, His-tagged (cynomolgus monkey).
T8 construct: also called cyno FcγRIIa1; cynoFcgRIIa1
T8 chain: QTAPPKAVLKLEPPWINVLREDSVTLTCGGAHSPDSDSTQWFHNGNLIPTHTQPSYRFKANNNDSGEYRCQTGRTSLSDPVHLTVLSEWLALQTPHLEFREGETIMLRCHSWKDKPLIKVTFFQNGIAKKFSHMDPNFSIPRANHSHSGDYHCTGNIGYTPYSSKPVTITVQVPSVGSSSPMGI

Usually Kd stands for the concentration at which binding is half-saturated.

T6 sequence (P08637 17-208 F176V): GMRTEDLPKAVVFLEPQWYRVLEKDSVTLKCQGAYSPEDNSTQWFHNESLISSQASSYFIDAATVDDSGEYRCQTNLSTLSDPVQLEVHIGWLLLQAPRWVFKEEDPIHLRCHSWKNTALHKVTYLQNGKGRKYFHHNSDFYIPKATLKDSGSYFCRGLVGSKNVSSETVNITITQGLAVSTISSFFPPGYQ

B1: MS_M103205H795-SG1/M103202L889-SK1 (antibody, human IgG1, kappa)
heavy: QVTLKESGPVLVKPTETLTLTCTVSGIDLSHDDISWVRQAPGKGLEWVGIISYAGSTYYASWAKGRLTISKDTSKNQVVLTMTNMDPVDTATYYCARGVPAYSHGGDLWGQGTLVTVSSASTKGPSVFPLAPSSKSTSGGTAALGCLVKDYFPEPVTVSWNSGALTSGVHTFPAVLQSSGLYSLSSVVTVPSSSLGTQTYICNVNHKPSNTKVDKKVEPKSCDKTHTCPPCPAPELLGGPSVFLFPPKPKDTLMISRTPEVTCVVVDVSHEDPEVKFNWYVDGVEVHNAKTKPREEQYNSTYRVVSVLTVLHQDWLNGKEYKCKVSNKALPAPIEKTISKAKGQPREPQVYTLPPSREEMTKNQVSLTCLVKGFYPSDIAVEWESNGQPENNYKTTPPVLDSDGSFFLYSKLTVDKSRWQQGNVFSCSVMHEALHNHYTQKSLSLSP
light: DIVMTQSPATLSLSPGERATLSCTSSQSVYHANWLSWFQQKPGQPPKLLIYWASTLAYGVPSRFSGSGSGTDFTLTISSLQPEDAATYYCAGGYGGGRYAFGQGTKVEIKRTVAAPSVFIFPPSDEQLKSGTASVVCLLNNFYPREAKVQWKVDNALQSGNSQESVTEQDSKDSTYSLSSTLTLSKADYEKHKVYACEVTHQGLSSPVTKSFNRGEC
notes: Parent antibody of the Fc variants; heavy chain constant region SG1, light chain M103202L889-SK1; also called MS1032LO06-SG1
Take B1: the Kd in assay [1] came to 1100 nM; in assay [2] it was 5100 nM; in assay [3], 17000 nM; in assay [4] it was 1800 nM; in assay [5] it was 690 nM; in assay [6], 810 nM. In addition, the values for the Kd in assay [7] and in assay [8] were 360 nM and 3200 nM, respectively.

B2: M103205H795-MY014/M103202L889-SK1 (antibody, human IgG1, kappa)
heavy: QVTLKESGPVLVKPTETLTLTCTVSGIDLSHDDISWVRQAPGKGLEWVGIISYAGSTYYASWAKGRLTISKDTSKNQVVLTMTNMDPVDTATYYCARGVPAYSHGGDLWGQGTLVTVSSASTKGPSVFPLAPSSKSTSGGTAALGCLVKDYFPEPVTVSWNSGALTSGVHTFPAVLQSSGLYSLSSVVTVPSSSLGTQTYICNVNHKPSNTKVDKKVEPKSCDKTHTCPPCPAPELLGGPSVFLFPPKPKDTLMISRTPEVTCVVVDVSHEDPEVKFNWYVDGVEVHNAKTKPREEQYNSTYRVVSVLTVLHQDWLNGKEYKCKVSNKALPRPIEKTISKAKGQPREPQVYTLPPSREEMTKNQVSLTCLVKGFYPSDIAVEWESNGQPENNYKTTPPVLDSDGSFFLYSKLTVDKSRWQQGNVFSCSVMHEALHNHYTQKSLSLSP
light: DIVMTQSPATLSLSPGERATLSCTSSQSVYHANWLSWFQQKPGQPPKLLIYWASTLAYGVPSRFSGSGSGTDFTLTISSLQPEDAATYYCAGGYGGGRYAFGQGTKVEIKRTVAAPSVFIFPPSDEQLKSGTASVVCLLNNFYPREAKVQWKVDNALQSGNSQESVTEQDSKDSTYSLSSTLTLSKADYEKHKVYACEVTHQGLSSPVTKSFNRGEC
notes: Substitution put into M103205H795-SG1
For B2, the Kd is 960 nM in assay [1]; 2500 nM in assay [2]; 12000 nM in assay [3]; 1500 nM in assay [4]; 520 nM in assay [5]; 690 nM in assay [6]. For the same molecule, the figures for the Kd in assay [7] and in assay [8] were 400 nM and 2500 nM, respectively.

B3: M103205H795-MY016/M103202L889-SK1 (antibody, human IgG1, kappa)
heavy: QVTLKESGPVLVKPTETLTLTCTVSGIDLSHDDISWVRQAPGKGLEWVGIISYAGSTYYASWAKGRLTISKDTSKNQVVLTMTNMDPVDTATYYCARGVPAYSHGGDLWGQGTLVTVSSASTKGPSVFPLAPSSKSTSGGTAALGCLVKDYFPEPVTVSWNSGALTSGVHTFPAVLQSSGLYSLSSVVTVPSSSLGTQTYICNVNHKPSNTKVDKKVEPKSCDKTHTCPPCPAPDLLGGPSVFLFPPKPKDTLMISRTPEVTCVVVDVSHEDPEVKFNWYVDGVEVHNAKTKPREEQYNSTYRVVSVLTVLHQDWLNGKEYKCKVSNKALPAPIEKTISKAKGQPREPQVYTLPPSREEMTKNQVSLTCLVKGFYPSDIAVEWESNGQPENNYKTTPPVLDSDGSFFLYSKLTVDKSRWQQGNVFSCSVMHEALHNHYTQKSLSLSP
light: DIVMTQSPATLSLSPGERATLSCTSSQSVYHANWLSWFQQKPGQPPKLLIYWASTLAYGVPSRFSGSGSGTDFTLTISSLQPEDAATYYCAGGYGGGRYAFGQGTKVEIKRTVAAPSVFIFPPSDEQLKSGTASVVCLLNNFYPREAKVQWKVDNALQSGNSQESVTEQDSKDSTYSLSSTLTLSKADYEKHKVYACEVTHQGLSSPVTKSFNRGEC
notes: as for B2
Turning to B3, the dissociation constant (Kd) came out at 940 nM in assay [1]; 3400 nM in assay [2]; 3200 nM in assay [3]; 1700 nM in assay [4]; 850 nM in assay [5]; 370 nM in assay [6]. Further, the Kd in assay [7] was 230 nM; in assay [8], 2900 nM.

B4: M103205H795-MY037/M103202L889-SK1 (antibody, human IgG1, kappa)
heavy: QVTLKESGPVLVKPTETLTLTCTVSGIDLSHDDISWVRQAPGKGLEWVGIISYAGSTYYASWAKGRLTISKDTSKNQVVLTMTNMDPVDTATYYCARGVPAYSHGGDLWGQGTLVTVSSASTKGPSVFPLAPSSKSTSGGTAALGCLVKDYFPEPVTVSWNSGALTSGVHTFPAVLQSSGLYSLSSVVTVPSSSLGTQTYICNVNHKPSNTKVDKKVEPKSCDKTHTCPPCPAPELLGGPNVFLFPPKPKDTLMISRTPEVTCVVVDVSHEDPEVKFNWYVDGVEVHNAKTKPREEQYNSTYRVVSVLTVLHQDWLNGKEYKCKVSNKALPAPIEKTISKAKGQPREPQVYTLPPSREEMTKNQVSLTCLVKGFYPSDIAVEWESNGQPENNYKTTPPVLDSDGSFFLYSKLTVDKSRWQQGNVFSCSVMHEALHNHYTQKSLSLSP
light: DIVMTQSPATLSLSPGERATLSCTSSQSVYHANWLSWFQQKPGQPPKLLIYWASTLAYGVPSRFSGSGSGTDFTLTISSLQPEDAATYYCAGGYGGGRYAFGQGTKVEIKRTVAAPSVFIFPPSDEQLKSGTASVVCLLNNFYPREAKVQWKVDNALQSGNSQESVTEQDSKDSTYSLSSTLTLSKADYEKHKVYACEVTHQGLSSPVTKSFNRGEC
notes: as for B2
As for B4, the Kd in assay [1] was 910 nM; in assay [2], 4500 nM; in assay [3] it was 9600 nM; in assay [4], 2400 nM; in assay [5], 1100 nM; in assay [6], 370 nM. In addition, the results for the Kd in assay [7] and in assay [8] were 200 nM and 3800 nM, respectively.

B5: M103205H795-MY013/M103202L889-SK1 (antibody, human IgG1, kappa)
heavy: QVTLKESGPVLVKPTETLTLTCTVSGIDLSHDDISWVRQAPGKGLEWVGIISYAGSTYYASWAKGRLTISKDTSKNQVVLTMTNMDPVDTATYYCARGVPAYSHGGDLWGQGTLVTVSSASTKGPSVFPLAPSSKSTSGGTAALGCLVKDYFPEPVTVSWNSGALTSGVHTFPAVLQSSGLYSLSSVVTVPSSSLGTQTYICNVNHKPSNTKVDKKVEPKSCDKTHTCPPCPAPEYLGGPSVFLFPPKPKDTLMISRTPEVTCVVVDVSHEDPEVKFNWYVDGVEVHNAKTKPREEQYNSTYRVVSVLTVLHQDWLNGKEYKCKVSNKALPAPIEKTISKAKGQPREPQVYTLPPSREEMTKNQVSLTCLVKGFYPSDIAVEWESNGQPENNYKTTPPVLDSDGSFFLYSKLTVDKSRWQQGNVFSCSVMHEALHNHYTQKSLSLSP
light: DIVMTQSPATLSLSPGERATLSCTSSQSVYHANWLSWFQQKPGQPPKLLIYWASTLAYGVPSRFSGSGSGTDFTLTISSLQPEDAATYYCAGGYGGGRYAFGQGTKVEIKRTVAAPSVFIFPPSDEQLKSGTASVVCLLNNFYPREAKVQWKVDNALQSGNSQESVTEQDSKDSTYSLSSTLTLSKADYEKHKVYACEVTHQGLSSPVTKSFNRGEC
notes: as for B2
Consider B5, for which the Kd worked out at 5100 nM in assay [1]; 4700 nM in assay [2]; 52000 nM in assay [3]; 2000 nM in assay [4]; 2600 nM in assay [5]; 410 nM in assay [6]. Moreover, the Kd worked out at 330 nM in assay [7] and 4500 nM in assay [8].

B6: M103205H795-MY010/M103202L889-SK1 (antibody, human IgG1, kappa)
heavy: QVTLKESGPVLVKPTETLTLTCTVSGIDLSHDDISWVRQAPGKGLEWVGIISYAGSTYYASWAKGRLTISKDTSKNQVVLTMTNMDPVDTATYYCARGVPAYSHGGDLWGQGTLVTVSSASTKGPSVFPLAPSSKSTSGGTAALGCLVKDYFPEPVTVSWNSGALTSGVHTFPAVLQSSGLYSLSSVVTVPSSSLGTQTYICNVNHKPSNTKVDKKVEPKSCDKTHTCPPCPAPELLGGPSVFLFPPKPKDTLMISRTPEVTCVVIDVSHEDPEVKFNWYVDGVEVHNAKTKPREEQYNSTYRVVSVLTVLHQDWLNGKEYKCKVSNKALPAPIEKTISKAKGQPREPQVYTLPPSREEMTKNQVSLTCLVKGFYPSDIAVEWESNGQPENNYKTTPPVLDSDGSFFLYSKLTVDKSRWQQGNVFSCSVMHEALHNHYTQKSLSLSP
light: DIVMTQSPATLSLSPGERATLSCTSSQSVYHANWLSWFQQKPGQPPKLLIYWASTLAYGVPSRFSGSGSGTDFTLTISSLQPEDAATYYCAGGYGGGRYAFGQGTKVEIKRTVAAPSVFIFPPSDEQLKSGTASVVCLLNNFYPREAKVQWKVDNALQSGNSQESVTEQDSKDSTYSLSSTLTLSKADYEKHKVYACEVTHQGLSSPVTKSFNRGEC
notes: as for B2
For B6, the dissociation constant Kd in assay [1] was 1800 nM; in assay [2], 5000 nM; in assay [3] it was 18000 nM; in assay [4], 2000 nM; in assay [5], 1200 nM; in assay [6], 220 nM. Further, the values for the Kd in assay [7] and in assay [8] were 220 nM and 3900 nM, respectively.

B7: M103205H795-MY008/M103202L889-SK1 (antibody, human IgG1, kappa)
heavy: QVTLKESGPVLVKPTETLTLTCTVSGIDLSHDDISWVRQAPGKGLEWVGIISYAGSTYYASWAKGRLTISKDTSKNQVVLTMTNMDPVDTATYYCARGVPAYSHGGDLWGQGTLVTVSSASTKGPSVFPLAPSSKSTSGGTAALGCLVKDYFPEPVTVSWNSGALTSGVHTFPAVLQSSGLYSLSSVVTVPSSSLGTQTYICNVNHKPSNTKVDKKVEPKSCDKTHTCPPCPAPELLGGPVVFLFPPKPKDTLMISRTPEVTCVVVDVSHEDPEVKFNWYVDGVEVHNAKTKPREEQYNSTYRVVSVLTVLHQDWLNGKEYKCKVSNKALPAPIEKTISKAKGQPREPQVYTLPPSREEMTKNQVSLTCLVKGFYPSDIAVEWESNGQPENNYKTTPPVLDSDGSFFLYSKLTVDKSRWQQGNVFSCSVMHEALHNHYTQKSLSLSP
light: DIVMTQSPATLSLSPGERATLSCTSSQSVYHANWLSWFQQKPGQPPKLLIYWASTLAYGVPSRFSGSGSGTDFTLTISSLQPEDAATYYCAGGYGGGRYAFGQGTKVEIKRTVAAPSVFIFPPSDEQLKSGTASVVCLLNNFYPREAKVQWKVDNALQSGNSQESVTEQDSKDSTYSLSSTLTLSKADYEKHKVYACEVTHQGLSSPVTKSFNRGEC
notes: as for B2
Consider B7, for which the Kd amounted to 1800 nM in assay [1]; 3700 nM in assay [2]; 24000 nM in assay [3]; 1700 nM in assay [4]; 1600 nM in assay [5]; 630 nM in assay [6]. Besides, the figures for the Kd in assay [7] and in assay [8] were 370 nM and 4200 nM, respectively.

B8: M103205H795-MY038/M103202L889-SK1 (antibody, human IgG1, kappa)
heavy: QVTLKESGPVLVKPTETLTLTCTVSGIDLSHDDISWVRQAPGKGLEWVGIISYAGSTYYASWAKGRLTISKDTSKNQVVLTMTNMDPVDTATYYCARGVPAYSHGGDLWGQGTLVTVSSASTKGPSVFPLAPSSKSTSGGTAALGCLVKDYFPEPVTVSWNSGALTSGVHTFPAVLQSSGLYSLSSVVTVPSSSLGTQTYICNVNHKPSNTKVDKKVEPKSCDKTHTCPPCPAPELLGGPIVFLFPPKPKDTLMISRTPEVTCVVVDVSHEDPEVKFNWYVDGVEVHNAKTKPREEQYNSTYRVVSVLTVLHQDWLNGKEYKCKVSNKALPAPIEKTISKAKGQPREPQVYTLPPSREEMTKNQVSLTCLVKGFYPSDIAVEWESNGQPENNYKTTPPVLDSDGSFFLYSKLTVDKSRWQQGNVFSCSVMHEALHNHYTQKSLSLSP
light: DIVMTQSPATLSLSPGERATLSCTSSQSVYHANWLSWFQQKPGQPPKLLIYWASTLAYGVPSRFSGSGSGTDFTLTISSLQPEDAATYYCAGGYGGGRYAFGQGTKVEIKRTVAAPSVFIFPPSDEQLKSGTASVVCLLNNFYPREAKVQWKVDNALQSGNSQESVTEQDSKDSTYSLSSTLTLSKADYEKHKVYACEVTHQGLSSPVTKSFNRGEC
notes: as for B2
Turning to B8, the Kd in assay [1] is 1500 nM; in assay [2] it was 4500 nM; in assay [3], 11000 nM; in assay [4] it was 1900 nM; in assay [5], 1200 nM; in assay [6], 650 nM. Further, the Kd in assay [7] was 310 nM; in assay [8], 3900 nM.

B9: M103205H795-MY006/M103202L889-SK1 (antibody, human IgG1, kappa)
heavy: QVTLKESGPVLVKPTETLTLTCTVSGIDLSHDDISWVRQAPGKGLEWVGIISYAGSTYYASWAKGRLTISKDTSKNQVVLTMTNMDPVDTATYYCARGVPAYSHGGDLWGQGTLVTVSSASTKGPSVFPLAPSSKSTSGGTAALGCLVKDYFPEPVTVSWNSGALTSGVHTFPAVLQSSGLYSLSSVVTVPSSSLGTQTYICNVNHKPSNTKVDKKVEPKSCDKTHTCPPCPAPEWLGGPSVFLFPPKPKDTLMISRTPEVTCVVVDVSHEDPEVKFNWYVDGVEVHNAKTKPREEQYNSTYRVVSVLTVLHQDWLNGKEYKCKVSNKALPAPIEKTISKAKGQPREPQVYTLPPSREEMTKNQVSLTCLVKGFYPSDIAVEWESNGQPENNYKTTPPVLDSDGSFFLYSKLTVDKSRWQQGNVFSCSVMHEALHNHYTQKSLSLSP
light: DIVMTQSPATLSLSPGERATLSCTSSQSVYHANWLSWFQQKPGQPPKLLIYWASTLAYGVPSRFSGSGSGTDFTLTISSLQPEDAATYYCAGGYGGGRYAFGQGTKVEIKRTVAAPSVFIFPPSDEQLKSGTASVVCLLNNFYPREAKVQWKVDNALQSGNSQESVTEQDSKDSTYSLSSTLTLSKADYEKHKVYACEVTHQGLSSPVTKSFNRGEC
notes: as for B2
Regarding B9, the Kd came out at 1800 nM in assay [1]; 1500 nM in assay [2]; 3600 nM in assay [3]; 920 nM in assay [4]; 1300 nM in assay [5]; 730 nM in assay [6]. In addition, the Kd in assay [7] was 320 nM; in assay [8] it was 2000 nM.

B10: M103205H795-MY041/M103202L889-SK1 (antibody, human IgG1, kappa)
heavy: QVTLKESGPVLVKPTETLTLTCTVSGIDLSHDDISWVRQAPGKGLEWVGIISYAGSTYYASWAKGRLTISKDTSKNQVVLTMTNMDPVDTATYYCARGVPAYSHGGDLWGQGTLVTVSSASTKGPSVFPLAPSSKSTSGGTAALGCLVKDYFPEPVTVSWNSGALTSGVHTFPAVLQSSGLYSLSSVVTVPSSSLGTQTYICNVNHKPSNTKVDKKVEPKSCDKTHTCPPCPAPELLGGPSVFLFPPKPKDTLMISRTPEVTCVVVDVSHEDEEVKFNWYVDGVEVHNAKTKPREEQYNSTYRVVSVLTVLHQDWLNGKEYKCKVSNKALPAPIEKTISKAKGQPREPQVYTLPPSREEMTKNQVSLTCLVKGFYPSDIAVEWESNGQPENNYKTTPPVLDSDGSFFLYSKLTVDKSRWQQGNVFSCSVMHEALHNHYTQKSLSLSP
light: DIVMTQSPATLSLSPGERATLSCTSSQSVYHANWLSWFQQKPGQPPKLLIYWASTLAYGVPSRFSGSGSGTDFTLTISSLQPEDAATYYCAGGYGGGRYAFGQGTKVEIKRTVAAPSVFIFPPSDEQLKSGTASVVCLLNNFYPREAKVQWKVDNALQSGNSQESVTEQDSKDSTYSLSSTLTLSKADYEKHKVYACEVTHQGLSSPVTKSFNRGEC
notes: as for B2
In the case of B10, the Kd in assay [1] worked out at 1200 nM; in assay [2], 4100 nM; in assay [3] it was 7400 nM; in assay [4], 3500 nM; in assay [5] it was 1800 nM; in assay [6], 480 nM. For the same molecule, the Kd in assay [7] stood at 260 nM; in assay [8] it was 4000 nM.
